Earlier results on 1 substance are cited in publication PMC2799686.

Usually Kd stands for the free concentration of one partner at which half of the binding sites on the other are occupied at equilibrium, for simple one-to-one binding.

In this data set the target is DnaK (Escherichia coli) (UniProt P0A6Y8). The data set is described as follows: competition.
DnaK (Escherichia coli), sequence (P0A6Y8 2-638): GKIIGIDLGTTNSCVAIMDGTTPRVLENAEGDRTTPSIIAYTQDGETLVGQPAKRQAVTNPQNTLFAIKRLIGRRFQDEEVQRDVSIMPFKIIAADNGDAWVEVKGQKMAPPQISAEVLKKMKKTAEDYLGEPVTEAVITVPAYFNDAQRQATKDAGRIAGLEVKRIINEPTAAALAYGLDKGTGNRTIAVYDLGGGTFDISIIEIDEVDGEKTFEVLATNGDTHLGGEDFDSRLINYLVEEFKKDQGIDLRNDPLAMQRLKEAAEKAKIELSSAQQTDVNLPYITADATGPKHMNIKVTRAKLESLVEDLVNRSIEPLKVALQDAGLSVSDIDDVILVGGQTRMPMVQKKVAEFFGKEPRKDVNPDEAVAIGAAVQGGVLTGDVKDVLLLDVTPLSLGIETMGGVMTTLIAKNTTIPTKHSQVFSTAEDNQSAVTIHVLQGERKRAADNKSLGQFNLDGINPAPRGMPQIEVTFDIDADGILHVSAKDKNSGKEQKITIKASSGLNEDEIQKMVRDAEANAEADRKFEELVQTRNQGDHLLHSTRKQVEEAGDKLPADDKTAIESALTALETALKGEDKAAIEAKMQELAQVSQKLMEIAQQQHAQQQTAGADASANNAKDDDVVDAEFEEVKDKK

pyrrhocoricin, sequence (P37362 whole entry): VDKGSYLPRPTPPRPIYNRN

With pyrrhocoricin (from UniProt P37362), the Kd was 50 µM.
